Results as given in the nanobody polyreactivity screen of Harvey et al. (2022).

Assay: yeast display, Sf9 membrane polyspecificity reagent, FACS + sequencing; frameworks hold sequencing errors
Method in brief: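 Nanobodies came from a synthetic yeast display library in Saccharomyces cerevisiae BJ5465, induced with galactose for 36–48 hours and stained for 1 hour at 4 °C with 10% biotinylated, detergent-solubilized Sf9 membrane reagent. Cells were enriched on streptavidin microbeads and then FACS-sorted, with low and high (top ~1%) gates set on anti-HA fluorescence for expression and streptavidin fluorescence for reagent binding. Each polyreactivity label reflects the gate a clone came from. Genes were amplified by colony PCR, sequenced by MiSeq 2 × 250 and filtered by CDR length.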

## KVQLVESGGGLVQAGGSLRLSCAASGSTFSLYTLGGYRQAPGTERELVAAITNGGSTKYADSVKGRFTISRDNAKNTDYFQMNSLKPEDTAVYYCAALYSHYYWIEYDYWGQGTQVTVST
  polyreactivity (PSR sort gate): low polyreactivity

## QVQLVESGGGLVQAGGSLRLSCAASGSIFKGYAMGWYRQAPGKERELVAAISGGGGSTYYADSVKGRFTISRDNAKNTVYLQMNSLKPEDTAVYYCNRDDSWSTTGAYDYWGQGTQVTVSS
  polyreactivity (PSR sort gate): low polyreactivity

## QVQLVESGGGLVQAGGSLRLSCAASGRTYRRNAMGWYRQAPGKERELVAAIRSDGSTYYADSVKGRFTISRDNAKNTVYLQMNRLKPEDTAVYYCNAVYVSSFTCHDYWGQGTQVTVSS
  polyreactivity (PSR sort gate): low polyreactivity

## QVQLVESGGGLVQAGGSLRLSCAASGRTFRVYTMGWYRPAPGKERELVAVISGRGGSTSYADSVKGRFTISRDNAKNSVYVQINSLKPEDTAVYYCAALYTQSNSASMYYWGQGTQVTVSS
  polyreactivity (PSR sort gate): high polyreactivity

## QVQLVESGGGLVQAGGSLRISCAASGSIFYQYAMGWYRQAPGKERELVAGITWSGGSTYYADSVKGRFTISRDNAKNTVYLQMNSLKPEDSAVYYCARRYRGGYFWGQGTQVTVSS
  polyreactivity (PSR sort gate): high polyreactivity

## QVQLVESGGGLVQAGGSLRLSCAASGLIFARNAMGWYRQAPGKERELVAAITRRGTSTYYADSVKGRFTISRDNAKNTVYLQMNSLKPEDTAVYYCAARGGGGQRYDYWGQGTQVTVSS
  polyreactivity (PSR sort gate): high polyreactivity

## QVQLVESGGGLVQAGGSLRLSCAASGRTFYQNVMGWYRPAPGKERELVAAISQRGGRTYYADSVKGRFTISRDNAKNTVYLQMNSLKPEDTAVYYCNADSTVWPYDYWGQGTQVTVSS
  polyreactivity (PSR sort gate): low polyreactivity

## QVQLVESGGGVVQAGGSLRLTCAASGIIFYRYSMGWYSQAPGKERELVAAISIGGGSTYYADSVKVRFTISRYNAKNTVYLEMNSLKPEDTAVYYCAADTYNYVGYNGHDYWGQGTQVTVSS
  polyreactivity (PSR sort gate): low polyreactivity

## QVQLVESGGGLVQAGGSLRLSCAASGITFYDYAMGWYRQAPGKERELVAAISFSGSRTYYADSVKGRFTISRDIAKNTVYLQMNSLKPEDTAVYYCAASQARNYKIYDYWGQGTQVTVSS
  polyreactivity (PSR sort gate): high polyreactivity

## QVQLVESGGGLVQAGGSLRLSCAASGFTFTDYAMGWYRQAPGKERELVAAISGIGGSTYYADSVKGRFTISRDNAKNTVYLQMNSLKPEDTAVYYCAAELTKWRFWGLHDSWGQGTQVTVSS
  polyreactivity (PSR sort gate): high polyreactivity

## QVQLVESGGGLVQAGGSLRLSCAASGFIFSRYAMGWYRQAPGKERELVAAISIGGSTYYADSVKGRFTISRDNAKNTVYVQMNSLKPEDTAVYYCPVDYRHSSSWNAGPWEMYYWGQGTQVTVSS
  polyreactivity (PSR sort gate): low polyreactivity

## QVQLGESGGGLVQAGGSLRLSCAASGIIFRRYAMGWYRQAPGKERELVAVISSGGSTNYADSVKGRFTISRDNAKNTVYLQMNSLKPEDTAVYYCAAPSQSRGYYYWGQGTQVTVSS
  polyreactivity (PSR sort gate): high polyreactivity

## QVQLVESGGGLVQAGGSLRLSCAASGSTFYPNAMGWYRQAPGKERELVAAITSAGSTYYADSVKGRFTISRDNAKNTVYLQMNSLKPEDTAVYYCAKRRASRYYWGQGTQVTVSS
  polyreactivity (PSR sort gate): high polyreactivity

## QVQLVESGGGLVQAGGSLRLSCAASGSTIYPNAMGWYRQAPGKERELVAVISSGGSTYYADSVKGRFTISRDNAKNTVYLLMNSLKPVDTAVYYCAADRGTVSYLYSPRAVDYWGQGTQVTVSS
  polyreactivity (PSR sort gate): low polyreactivity

## QVKLVESGGGLVQAGGSLRLSFAASGYTFGSNAMGWYRQAPGKERELVADIDCSSGNTYYADSVKGRFTISRDNAKNTVYLQMNSLKPEDTAVYYCAAELHIYYSWYWYDYWGQGTQVTVSS
  polyreactivity (PSR sort gate): high polyreactivity

## QVQLVESGGGLVQAGGSLRLSCAASGLTFIAYAMGWYRQAPGKERELVAAITWIGDSTYYADSVKGRFTISRDNAKNTVYLQMNSLKPEDTAVYYCATDWYGQYNGIYDYWGQGTQVTVSS
  polyreactivity (PSR sort gate): low polyreactivity

## QVQLVESGGGLVQAGGSLRLSCAASGLTFGWYAMGWYRQAPGKERELVASITRRSGSTYYADSVKGRFTISRDNAKNTVYLQMNSLKPEDTAVYYCNAVPGYVYYYQYWGQGTQVTVSS
  polyreactivity (PSR sort gate): high polyreactivity

## QVQLVESGGGLVQAGGSLRLTCAASGSIFFQNAMGWYRQAPGKERELVATITSSVGSTYYADSVKGRFTISRDNAKNTVYFQMNSLKPEDTAVYYCNVRVFSAALWYTYFGYDYWGQGTQVTVSS
  polyreactivity (PSR sort gate): low polyreactivity

## QVQLVESGGGLVQAGGSLRLSCAASGSTFYPYAMGWYRQAPGKERELVAAINWSGGTTYYADSVKGRFTLSRDNAKNTVYLQMNSLKPEDTAVYYCAAVGYPPGYGYWGQGTQVTVSS
  polyreactivity (PSR sort gate): low polyreactivity

## QVQLVESGGGLVQAGGSLRVSCAASGRTFRYYEMGWYRQAPGKERELVAAISWSGGSTYYADSVKGRFTISRDNAKNSVYLQMNSLKPEDTAVYYCGAPKPIYSYPTYYYWGQGTQVTVSS
  polyreactivity (PSR sort gate): high polyreactivity

## QVQLVESGGGLVQAGGSLRLSCAASASIFYYYAMGWYRQEPGKERELVAALSDSGSTNYADSVKGRFTISRDNAKNTVYLQLNSLKPEDTAVYYCAAGFGSRRYRGVYYKMYYRGQGTQVTVSS
  polyreactivity (PSR sort gate): high polyreactivity

## QVLLVESGGGLVQAGGSLRLTCTPYGSIFGYYVMGRYRQPPGKEREFVAAISYGGGSTYYADSVKGRFTISRDNAKNTVYLQMNSLKPEETAVYYCNTDIYSDYVGEEYEYWGQGSQVTVSS
  polyreactivity (PSR sort gate): high polyreactivity

## QVQLVESVGGLVQAGGSLRLSCAASGGIFQPNAMGWYRQAPGKERELVATISQRGGSPYYSDSVKGRFTISRDNAKNTVYLQMNSVKPEDTAVYYCAAEVYYYYDAIYIARYEYWGQGTQVTVSS
  polyreactivity (PSR sort gate): low polyreactivity

## QVQLVESGGGLVQAGGSLRLSCAASGRTFKPYAMGWYRQAPGKERELVAAIRSAGTTNYADSVKGRFTISRDNAKNTVYLQMNSLKPEDTAVYYCNAGTYLRRYYGFDYWGQGTQVTVSS
  polyreactivity (PSR sort gate): high polyreactivity

## QVQLVESGAGLVQAGVSLRLSCAASGRTFPYYAMGWYRQAPGKERELVARITYSGGSTYADSVKGRFPISRDNAKNTVYLQMNSLKPEDTAVYFCAAQYYAYLLDGYHRYDYWGLGTQVTVSS
  polyreactivity (PSR sort gate): high polyreactivity

## QDQLVESGGGLDQAGGSLRLSGAASGGILPRYAMGWYRQAPGKERELVAGITRGGSTYYADSVKGRFSISRDNAKNTVYLQMNSLKPEDTAVYYCAKYGYQTGIFYYWGQGTQVTVSS
  polyreactivity (PSR sort gate): high polyreactivity

## QVQLVESGGGLVQAGGSLRLSCAASGRNFPRNVMGWYRQAPGKERELVAAITGSGSSTYYADSVKGRFTISRDIEKNTVYLQMNSLQPEDTAVYYCATIWRFKLGDYWGQGTQVTVSS
  polyreactivity (PSR sort gate): high polyreactivity

## QVQLVESGGGLVQAGGSLRLSSAASGRIFKYYVMGWYRQAPGKEREFVAAISGRGGRTYYADSVKGRFTISRDNAKNTVYLQMNSLKPEDTAVYYCATERQDRGPLGYNYWGQGTQVTVSS
  polyreactivity (PSR sort gate): high polyreactivity

## QVQLVESGGGLVQAGGSLRLSCAASGRTLPFYAMGWYRPAPGKERELVAAISRSGARTYYADSVKGRFTISRDHAKNTVYLQMNSLKPEDTAVYYFAAGFMWYIGNSKFDYWGQGTQVTVSS
  polyreactivity (PSR sort gate): high polyreactivity

## QVQLVESGGGLVQAGGSLRLSCAASGFTFRNNAMGWYRQAPGKERELVAAISYSGGSTYYADSVKGRFTISRDNAKNTVYLQMNSLKPEDTAVYYCNPRRWSYLEYDYWGQGTQVTVSS
  polyreactivity (PSR sort gate): low polyreactivity

## QVQLVESGGGLVQAGGSLRLSCASSGSTFSSYAMGRYRQAPGKERELVAAITRGGSTNYADSVKGRFTISRDNAKNTVYLQMNSLKPEYTAVYYCAADGPIVGTMDYWGQGTQVTVSS
  polyreactivity (PSR sort gate): high polyreactivity

## QVQLVESGGGLVQAGGSLRLSCAASGSTFLRYTMGWYRQAPGKARELVAAITRSGGSTYYADSVKGRFTISRDTAKNTVYLQMNSLKPEDTAVYYCAKRYRVAYGYWGQGTQVTVSS
  polyreactivity (PSR sort gate): high polyreactivity

## QVQLVESGGGLVQAGGSLRLSCAASGSTFTPYAMGWYRQAPGKERELVAAISSTGGITYYADSVKGRFTISRDNAKNTVYLQMNSLKPEDTAVYYCAADAYYYGYEYWGQGTQVTVSS
  polyreactivity (PSR sort gate): high polyreactivity

## QVQLEESGGGLVQAGGSLRLSCAASVFTFSRYAMGWYRQAHGKVREIVAAISYRGGSTYADSVKGRFTISRDNAKNTVYLQMNSLKPEDTAVYYCAALRWGTDVWRRRIGSLLMGYSGQGTQVTVSS
  polyreactivity (PSR sort gate): high polyreactivity

## QVQLVESGGGLVQAGGSLRFSCAYSGRTFFGYAMGWYRQAPGKERELVAAITSAGGRTYYADSVKGRYTISRDNAKNTVYLQMNSLKPEYTAVYYCAATRWYYGLSAFDSWGQGTQVTVSS
  polyreactivity (PSR sort gate): high polyreactivity

## QVQLVESGGGLVQAGGSLRLSCAASGRIFRDYAMGWYRQAPGKERELVAAITGSGGRTYYADSVKGRFTISRDTAKNTVYLQMNSLKPEDTAVYYCAAYLGRRGQEMDYWGQGTQVTVSS
  polyreactivity (PSR sort gate): high polyreactivity

## QVQLGESVVCLDQAGVSLPLSCAASGFTFKYYTMRWFRQAPGKERELVAAISRRGGSTYYADSVKGRFTISRDNAKNTVYLQMKSLKPEDTAVYYCAADYRYVSTPYGYDYWGQGTQVTVSS
  polyreactivity (PSR sort gate): high polyreactivity

## QDQLVESGGGLVQAGGSLRLSCAASGITFYRNAMGWYRQAPGKERELVAAITSGTRTNYADSVKGRFTISRDNAKNTVYLQMNSLKPEDTAVYYCAKGGRSSSPLYRFEYWGQGTQVTVSS
  polyreactivity (PSR sort gate): high polyreactivity

## QVQLVESGGGLVQAGGSLRLSCAASGRTFYKNAMGWYRQAPGKEREFVASISVSGGRTYYADSVKGRFTISRDNAKNTVYLQMNSLKPEDTAVYYCNARASPLSQRDYWGQGTQVTVSS
  polyreactivity (PSR sort gate): low polyreactivity

## QVQLVESGGGLVQAGGSLRLSCAASGFTFVYYVMGRYRPAPGKERDLVAAINAGGGSTYYADSVKGRFTISRDNAKNTVYLQMNSLKPEDTSVYYCAARYHTSTRPCRNYWGQGTQVTVSS
  polyreactivity (PSR sort gate): high polyreactivity

## QVQLVEAGGGLVQAGGSLRLSCAASGRTFYQNAMGWNIQAPGKERELVAAISRSGGSTYYADSVKGRFTISRDNAKITVYLQMTSLKPEDTAVYYCAADPRSYGGGYDYWGQGTQVTVSS
  polyreactivity (PSR sort gate): high polyreactivity

## QVQLVESGGGLVQAGGSLRLSCAASGSTFYYYAMGWYRQAPGKERELVASISDDGSTNYADSVKGRFTISRDNAKNTVYLQMNSLKPEDTAVYYCAAVWWHQFGSAWYQMGYWGQGTQVTVSS
  polyreactivity (PSR sort gate): low polyreactivity

## QVQLVESGGGLVQAGGSLRLSCAASGSIFASNAMGWYRQAPGKEREFVAAIRYSAGITYYADSVKGRFTISRDNAKNTVYLQMNSLKPEDTAVYFCSAYGWVNRWYSRFDYWGQGTQVTVSS
  polyreactivity (PSR sort gate): high polyreactivity
